Source: article PMC5736413

Assays:
[1] = molecular target: FH19–20 19–20 (Homo sapiens) (UniProt P08603); assay: SPR; conditions: cited from earlier work
[2] = molecular target: recombinant mouse C3d (C1010A) (mouse) (UniProt P01027); assay: SPR
recombinant mouse C3d (C1010A) (mouse), sequence (P01027 1002-1303 C1010A): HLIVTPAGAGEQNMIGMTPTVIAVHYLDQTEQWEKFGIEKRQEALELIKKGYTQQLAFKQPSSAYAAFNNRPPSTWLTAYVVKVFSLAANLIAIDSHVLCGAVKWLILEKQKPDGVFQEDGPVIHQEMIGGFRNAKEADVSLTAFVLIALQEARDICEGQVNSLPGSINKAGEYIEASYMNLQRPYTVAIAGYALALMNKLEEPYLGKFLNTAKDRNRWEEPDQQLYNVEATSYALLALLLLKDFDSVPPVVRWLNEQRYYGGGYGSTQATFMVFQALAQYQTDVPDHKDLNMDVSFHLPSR

C3d C3d, sequence (P01024 1002-1303): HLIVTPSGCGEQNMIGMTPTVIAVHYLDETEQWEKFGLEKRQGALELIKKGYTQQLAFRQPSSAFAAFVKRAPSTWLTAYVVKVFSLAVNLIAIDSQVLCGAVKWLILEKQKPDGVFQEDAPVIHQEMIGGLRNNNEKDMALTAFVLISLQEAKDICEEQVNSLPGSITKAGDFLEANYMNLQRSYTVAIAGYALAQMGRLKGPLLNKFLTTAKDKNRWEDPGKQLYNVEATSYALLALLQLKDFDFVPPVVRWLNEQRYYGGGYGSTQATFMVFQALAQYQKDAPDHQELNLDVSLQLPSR
FH19–20 19–20 (Homo sapiens), sequence (P08603 1104-1231): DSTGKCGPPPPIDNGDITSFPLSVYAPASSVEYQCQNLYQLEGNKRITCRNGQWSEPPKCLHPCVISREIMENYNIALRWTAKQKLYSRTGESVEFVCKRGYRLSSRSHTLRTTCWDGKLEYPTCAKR

Kd [2] [nM] | Substance | Kd [1] [nM]
 | C3d C3d (from UniProt P01024) | 180
546 | recombinant mouse Factor H-related protein B (natural protein) | 
1040 | recombinant mouse Factor H-related protein C (natural protein) | 
136 | recombinant mouse Factor H-related protein A (prototype, class A clone 3A4/5G4) (natural protein) | 
